# According to US20140020131:
# What was measured:
# [1] = biological target: T1, engineered MS26+ endonuclease, intron-containing gene (ST-LS1 intron) (synthetic construct (Chlamydomonas reinhardtii I-CreI derived)?) (UniProt P05725); assay: cell_activity; details: 3 of 257 T0 maize plants
# T1 sequence: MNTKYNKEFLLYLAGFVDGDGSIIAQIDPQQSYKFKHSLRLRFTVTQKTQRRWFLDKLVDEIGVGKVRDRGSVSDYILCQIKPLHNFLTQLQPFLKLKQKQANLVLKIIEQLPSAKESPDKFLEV
# [2] = test system: engineered MS26++ endonuclease (I-CreI-based) (synthetic construct (Chlamydomonas reinhardtii I-CreI derived)?); assay: cell_activity; details: 15 mutations among 344 T0 maize plants as printed; Agrobacterium
sequence,measurement,setting,value
GATGGTGACGTACGTGCCCTAC (double strand) [TS-MS26 target site (maize MS26 exon 5)],activity (% T0 plants mutated),[1],1.2
same,activity (% T0 plants mutated),[2],5.8
